Test results: US7524503B2, “Human cytomegalovirus (HCMV) cytotoxic T cell epitopes, polyepitopes compositions comprising same and diagnostic and prophylactic and therapeutic uses therefor” (priority 2001, dated 2009)

Assays:
[1] = system: PBMC from healthy HCMV seropositive donors; assay: IFN-γ ELISPOT assay; assay type: cell-based, human; conditions: for ELISPOT Responses (SFC/10^6 PBMC): peptide 10 μg/ml
Method: ELISPOT assay was used to assess whether stimulation of PBMC from a large panel of seropositive donors with HCMV peptides could induce IFN-γ expression in T cells. Briefly, a 96-well nitrocellulose plate (Multiscreen, Millipore) was coated overnight at 4° C. with mouse monoclonal antibody anti-IFN-γ IgG1 (10 μg/ml; Mabtech Nacka, Sweden). The plate was then washed six times in Phosphate Buffered Saline (PBS) and blocked for 1 hour at 37° C. with PBS supplemented with 5% FCS. The blocking solution was removed and PBMC from healthy HCMV seropositive donors were added at a concentration of 2.5×10^5 cells per well in growth medium. These cells were incubated for 18 h at 37° C. in a 5% CO2 atmosphere in the presence of synthetic peptides from HCMV antigens (10 μg/ml). After incubation, the plate was washed three times with PBS supplemented with 0.05% Tween, followed by three washes with PBS alone. Biotinylated anti-IFN-γ (Mabtech, Nacka Sweden) detection antibody was added to each well at a final concentration of 1 μg/ml in PBS. The plates were incubated at room temperature in the dark for 4 h and then washed, as described above. Streptavidin-Alkaline phosphatase (Sigma) was added to each well at a final concentration of 1 μg/ml in PBS and incubated at room temperature in the dark for 2 h. After a final wash with PBS, the substrate, 5-bromo-4-chloro-3-indolyl phosphate and nitro blue tetrazolium, was added to each well and the plates incubated for 30 min at RT. Cells that produced IFN-γ in response to the presence of peptide were detected as purple spots on the nitrocellulose membrane of each well. The spots were counted automatically using a closed-circuit camera (CCD) and ImagePro image analysis software or automated ELISPOT reader (AID, Germany). The T cell precursor frequency for each peptide was based on the total number of PBMC in the well and the number of peptide-specific spots per well, over an average of 3 wells. The number of peptide-specific spots was also calculated by subtracting the negative control values, which consisted of PBMC without peptide (an average of 3 wells), from the test wells.
To determine whether memory CTL responses against the predictive HCMV potential epitopes could be detected in healthy seropositive virus carriers, we used the ELISPOT assay, which allows rapid identification of CTL epitopes without prolonged in vitro culture.
We tested epitopes that were restricted for HLA A1, A3, A24, A26, B7, B8, B27, B35 and B44 in ELISPOT assays, to determine whether memory T cell responses could be detected in healthy HLA-matched virus carriers. PBMC from a cohort of healthy virus carriers (Table 2) were stimulated with individual peptides and the cells that produced IFN-γ were detected. CTL epitopes that were restricted through either HLA A1, A3, A24, A26, B7, B8 or B27, were identified.
Thus, a total of 450 peptides were produced. ELISPOT assays were used to determine whether ex vivo memory T cell responses could be detected in a cohort of 14 healthy virus carriers (Table 2). PBMC were stimulated with individual peptides and the cells that produced IFN-γ were detected.

[2] = biological target: T1, HLA A2 (Homo sapiens, UniProt P04439, D140Y/D185E/D98H/E176V/E277Q/G131W/G231S/I119V/I121R/I166T/I218V/L300P/L318F/N151K/N90K/P208A/P217A/Q86G/Q94H/R138H/R169H/T345S); assay type: cell-based; conditions: HLA A2 on T2 cells; relative increase in HLA expression vs no peptide at 26° C.
T1 construct: endogenous in cells; host or cells: T2 cells

Sequence | MSE (MHC stabilization efficiency) [2] | further results
ALVNFLRHL (human cytomegalovirus pp150 CTL epitope peptide) | ++ (++ = 100-199%) | ELISPOT Responses (SFC/10^6 PBMC) ([1]; donor ten): WS(57) SFC/10^6 PBMC
RIWCLVVCV (human cytomegalovirus gB CTL epitope peptide) | − (− = 0-50%) | ELISPOT Responses (SFC/10^6 PBMC) ([1]; donor fifteen): 105 SFC/10^6 PBMC; ELISPOT Responses (SFC/10^6 PBMC) ([1]; donor one): 108 SFC/10^6 PBMC
LLVLFIVYV (human cytomegalovirus US2 CTL epitope peptide) | − (− = 0-50%) | ELISPOT Responses (SFC/10^6 PBMC) ([1]; donor ten): WS(92) SFC/10^6 PBMC
LIEDFDIYV (human cytomegalovirus pp150 CTL epitope peptide) | ++ (++ = 100-199%) | ELISPOT Responses (SFC/10^6 PBMC) ([1]; donor ten): WS(88) SFC/10^6 PBMC
LLIDPTSGL (human cytomegalovirus pp28 CTL epitope peptide) | + (+ = 51-99%) | ELISPOT Responses (SFC/10^6 PBMC) ([1]; donor beta): 77 SFC/10^6 PBMC; ELISPOT Responses (SFC/10^6 PBMC) ([1]; donor seven): 270 SFC/10^6 PBMC
YLFSLVVLV (human cytomegalovirus US3 CTL epitope peptide) | + (+ = 51-99%) | ELISPOT Responses (SFC/10^6 PBMC) ([1]; donor ten): WS(73) SFC/10^6 PBMC
LMLLKNGTV (human cytomegalovirus gH CTL epitope peptide) | − (− = 0-50%) | ELISPOT Responses (SFC/10^6 PBMC) ([1]; donor seventeen): CJ(80) SFC/10^6 PBMC
LLFRTLLVYL (human cytomegalovirus US3 CTL epitope peptide) | +++ (+++ = 200-300%) | ELISPOT Responses (SFC/10^6 PBMC) ([1]; donor seven): 76 SFC/10^6 PBMC; ELISPOT Responses (SFC/10^6 PBMC) ([1]; donor ten): 77 SFC/10^6 PBMC
TLLVLFIVYV (human cytomegalovirus US2 CTL epitope peptide) | − (− = 0-50%) | ELISPOT Responses (SFC/10^6 PBMC) ([1]; donor delta): SE(46) SFC/10^6 PBMC
FLMEHTMPV (human cytomegalovirus IE2 CTL epitope peptide) | ++ (++ = 100-199%) | ELISPOT Responses (SFC/10^6 PBMC) ([1]; donor ten): WS(137) SFC/10^6 PBMC
RIFAELEGV [reference compound] | ++ (++ = 100-199%) | donors recognizing the epitope in ELISPOT ([1]; cohort of eight HLA A2-positive healthy seropositive donors): 5 of the 8; ELISPOT Responses (SFC/10^6 PBMC) ([1]; donor fifteen): CP(275) SFC/10^6 PBMC; ELISPOT Responses (SFC/10^6 PBMC) ([1]; donor six): 170 SFC/10^6 PBMC; ELISPOT Responses (SFC/10^6 PBMC) ([1]; donor ten): 236 SFC/10^6 PBMC
ILARNLVPM | ++ (++ = 100-199%) | ELISPOT Responses (SFC/10^6 PBMC) ([1]; donor delta): SE(170) SFC/10^6 PBMC
YILEETSVM (human cytomegalovirus IE1 CTL epitope peptide) [reference compound] | ++ (++ = 100-199%) | ELISPOT Responses (SFC/10^6 PBMC) ([1]; donor seven): SB(764) SFC/10^6 PBMC
LMQKFPKQV (human cytomegalovirus IE2 CTL epitope peptide) | + (+ = 51-99%) | –
FLLSHDAAL (human cytomegalovirus pp28 CTL epitope peptide) | ++ (++ = 100-199%) | –
QMLLALARL (human cytomegalovirus gB CTL epitope peptide) | + (+ = 51-99%) | –
GLLGASMDL (human cytomegalovirus pp28 CTL epitope peptide) | − (− = 0-50%) | –
TLVIPSWHV (human cytomegalovirus pp71 CTL epitope peptide) | ++ (++ = 100-199%) | –
ALFFFDIDL [reference compound] | ++ (++ = 100-199%) | –
IILVAIAVV (human cytomegalovirus gB CTL epitope peptide) | + (+ = 51-99%) | –
SLLSEFCRV (human cytomegalovirus IE1 CTL epitope peptide) | +++ (+++ = 200-300%) | ELISPOT Responses (SFC/10^6 PBMC) ([1]; donor ten): WS(471) SFC/10^6 PBMC
LIFGHLPRV (human cytomegalovirus gH CTL epitope peptide) | ++ (++ = 100-199%) | ELISPOT Responses (SFC/10^6 PBMC) ([1]; donor delta): SE(84) SFC/10^6 PBMC

Sequence | MSE (MHC stabilization efficiency) [2] | further results
LMNGQQIFL | ++ (++ = 100-199%) | ELISPOT Responses (SFC/10^6 PBMC) ([1]; donor fifteen): 217 SFC/10^6 PBMC; ELISPOT Responses (SFC/10^6 PBMC) ([1]; donor ten): 751 SFC/10^6 PBMC
GLDDLMSGL (human cytomegalovirus gB CTL epitope peptide) | ++ (++ = 100-199%) | –
KMSVRETLV (human cytomegalovirus pp150 CTL epitope peptide) | ++ (++ = 100-199%) | ELISPOT Responses (SFC/10^6 PBMC) ([1]; donor delta): SE(69) SFC/10^6 PBMC
RLLQTGIHV [reference compound] | ++ (++ = 100-199%) | ELISPOT Responses (SFC/10^6 PBMC) ([1]; donor thirteen): BS(57) SFC/10^6 PBMC
YLMDELRYV (human cytomegalovirus gH CTL epitope peptide) | ++ (++ = 100-199%) | –
SLVRLVYIL (human cytomegalovirus gH CTL epitope peptide) | + (+ = 51-99%) | –
MLNIPSINV [reference compound] | ++ (++ = 100-199%) | ELISPOT Responses (SFC/10^6 PBMC) ([1]; donor one): 178 SFC/10^6 PBMC; ELISPOT Responses (SFC/10^6 PBMC) ([1]; donor seven): 65 SFC/10^6 PBMC
YLLYRMLKT (human cytomegalovirus gH CTL epitope peptide) | − (− = 0-50%) | –
LLNCAVTKL (human cytomegalovirus pp50 CTL epitope peptide) | ++ (++ = 100-199%) | ELISPOT Responses (SFC/10^6 PBMC) ([1]; donor delta): SE(59) SFC/10^6 PBMC
YINRALAQI (human cytomegalovirus gB CTL epitope peptide) | ++ (++ = 100-199%) | –
RIEENLEGV (human cytomegalovirus pp150 CTL epitope peptide) | + (+ = 51-99%) | –
CLQNALDIL (human cytomegalovirus IE1 CTL epitope peptide) | ++ (++ = 100-199%) | ELISPOT Responses (SFC/10^6 PBMC) ([1]; donor delta): SE(490) SFC/10^6 PBMC
ALVNAVNKL (human cytomegalovirus pp150 CTL epitope peptide) | ++ (++ = 100-199%) | ELISPOT Responses (SFC/10^6 PBMC) ([1]; donor ten): WS(60) SFC/10^6 PBMC
TMWCLTLFV (human cytomegalovirus UL18 CTL epitope peptide) | ++ (++ = 100-199%) | –
QMWQARLTV | + (+ = 51-99%) | –
VIGDQYVKV [reference compound] | ++ (++ = 100-199%) | –
LLYPTAVDL (human cytomegalovirus gH CTL epitope peptide) | +++ (+++ = 200-300%) | –
YLTVFTVYL (human cytomegalovirus gH CTL epitope peptide) | ++ (++ = 100-199%) | –
LLGALNLCL (human cytomegalovirus IE2 CTL epitope peptide) | ++ (++ = 100-199%) | –
TLTEDFFVV (human cytomegalovirus gH CTL epitope peptide) | ++ (++ = 100-199%) | –
LLMMSVYAL (human cytomegalovirus gH CTL epitope peptide) | ++ (++ = 100-199%) | –
DLDEGIMVV (human cytomegalovirus gB CTL epitope peptide) | − (− = 0-50%) | –
